Source: the Human Domainome abundance scans (Beltran et al. 2025)
± gives the uncertainty stated by the source.

B1: Nucleosome-remodeling factor subunit BPTF, residues 2862 to 2918; numbered along this chain, Q12830 (parent)
chain: TKKDTKLYCICKTPYDESKFYIGCDRCQNWYHGRCVGILQSEAELIDEYVCPQCQST
B2: Segment polarity protein dishevelled homolog DVL-3, residues 2 to 81; numbered along this chain, Q92997 (parent)
chain: GETKIIYHLDGQETPYLVKLPLPAERVTLADFKGVLQRPSYKFFFKSMDDDFGVVKEEISDDNAKLPCFNGRVVSWLVSA

Variants of: B1
Test: abundance fitness (aPCA) (normalised: wild type 0, dead -1); higher = more abundant; growth selection in yeast, the domain comes from the species named
Details: Homo sapiens

Abundance fitness of substitutions, site by site:
C54: K -0.613 ± 0.1, H -0.512 ± 0.13, W -0.802 ± 0.12, S -0.889 ± 0.085, R -0.875 ± 0.1, G -0.755 ± 0.14, D -0.819 ± 0.17, N -0.802 ± 0.16, F -1.06 ± 0.14, M -0.648 ± 0.11, E -0.776 ± 0.16, A -0.851 ± 0.12, Y -0.983 ± 0.13, P -0.64 ± 0.12, T -1.01 ± 0.12, I -1.06 ± 0.15, V -0.934 ± 0.1
D47: K 0.089 ± 0.093, L -0.058 ± 0.072, F -0.219 ± 0.13, M -0.14 ± 0.14, Q 0.077 ± 0.1, T -0.051 ± 0.092, H 0.134 ± 0.14, R -0.044 ± 0.071, G 0.054 ± 0.068, S -0.053 ± 0.067, P -0.107 ± 0.12, W -0.326 ± 0.12, A 0.003 ± 0.073, C -0.043 ± 0.15, V -0.138 ± 0.088, I -0.227 ± 0.18, E 0.101 ± 0.099, N -0.03 ± 0.087
Q55: D 0.174 ± 0.1, P -0.101 ± 0.094, I -0.141 ± 0.12, M -0.188 ± 0.095, A -0.025 ± 0.084, N -0.09 ± 0.12, G -0.187 ± 0.075, T -0.196 ± 0.076, R -0.142 ± 0.068, C -0.072 ± 0.09, L -0.157 ± 0.078, W -0.245 ± 0.099, Y -0.474 ± 0.13, H -0.167 ± 0.12, V -0.18 ± 0.08, K 0.021 ± 0.11, E 0.01 ± 0.094, F -0.375 ± 0.13
P52: C -0.186 ± 0.11, Q -0.033 ± 0.12, D 0.113 ± 0.12, I -0.108 ± 0.14, L -0.125 ± 0.076, S 0.054 ± 0.082, T -0.071 ± 0.079, M -0.149 ± 0.11, A -0.058 ± 0.08, W -0.345 ± 0.13, F 0.032 ± 0.12, G -0.019 ± 0.079, Y -0.327 ± 0.14, V -0.017 ± 0.08, R -0.048 ± 0.077, K 0.126 ± 0.1, E 0.009 ± 0.091
E48: T -0.002 ± 0.096, L -0.139 ± 0.083, Y -0.125 ± 0.1, R 0.055 ± 0.07, S 0.051 ± 0.088, H -0.062 ± 0.11, Q -0.161 ± 0.12, A -0.008 ± 0.095, I -0.063 ± 0.12, G -0.112 ± 0.095, N 0.076 ± 0.14, C -0.009 ± 0.099, W -0.295 ± 0.12, K -0.109 ± 0.12, V -0.022 ± 0.09, P 0.086 ± 0.086, F -0.262 ± 0.11
V50: I -0.013 ± 0.095, Y -0.357 ± 0.11, F -0.099 ± 0.12, C -0.228 ± 0.095, G -0.672 ± 0.088, E 0.132 ± 0.15, L 0.015 ± 0.074, A -0.252 ± 0.088, R -0.145 ± 0.062, Q -0.191 ± 0.14, P -0.558 ± 0.1, N -0.203 ± 0.14, D -0.268 ± 0.15, T 0.037 ± 0.086, S -0.167 ± 0.077, M -0.159 ± 0.11, K -0.102 ± 0.11, H -0.288 ± 0.12, W -0.156 ± 0.078
C51: L -0.889 ± 0.093, H -0.848 ± 0.23, T -0.981 ± 0.13, P -0.919 ± 0.19, K -0.774 ± 0.16, A -0.777 ± 0.094, M -0.688 ± 0.15, Q -0.98 ± 0.15, N -0.904 ± 0.16, E -0.75 ± 0.096, S -0.53 ± 0.089, R -0.743 ± 0.088, I -1.08 ± 0.17, D -0.718 ± 0.14, Y -0.928 ± 0.14, F -0.916 ± 0.11
Y49: H -0.491 ± 0.17, Q -0.615 ± 0.15, A -0.382 ± 0.094, W -0.055 ± 0.12, R -0.47 ± 0.085, F -0.069 ± 0.11, D -0.715 ± 0.12, L -0.36 ± 0.075, P -0.494 ± 0.13, G -0.526 ± 0.11, S -0.427 ± 0.075, V -0.381 ± 0.091, T -0.447 ± 0.1, C -0.761 ± 0.18, M -0.481 ± 0.11
Q53: G 0.028 ± 0.092, Y -0.266 ± 0.13, R -0.078 ± 0.08, I 0.09 ± 0.13, N 0.078 ± 0.11, T 0.054 ± 0.091, S -0.092 ± 0.089, L -0.047 ± 0.084, E -0.009 ± 0.092, D 0.037 ± 0.11, H -0.017 ± 0.14, K -0.122 ± 0.11, W -0.25 ± 0.14, P -0.054 ± 0.093, A -0.052 ± 0.079, C -0.16 ± 0.13, M -0.139 ± 0.11
S56: W -0.554 ± 0.47, F -0.063 ± 0.22, G -0.195 ± 0.27, K -0.03 ± 0.39, Y -0.191 ± 0.45, N 0.269 ± 0.4, R 0.074 ± 0.35
A43: T -0.148 ± 0.097, Y -0.074 ± 0.18, S -0.119 ± 0.084, R -0.076 ± 0.081, W -0.182 ± 0.14, V -0.036 ± 0.096
T57: E -0.022 ± 0.21, Q -0.469 ± 0.43, Y -0.33 ± 0.28, I -0.115 ± 0.1, P -0.044 ± 0.16, V -0.052 ± 0.14, R -0.106 ± 0.17, H -0.172 ± 0.32, S 0.068 ± 0.11, A 0.024 ± 0.091, L -0.569 ± 0.28, M -0.509 ± 0.36, G -0.16 ± 0.18, C -0.003 ± 0.24
I46: L -0.027 ± 0.07, N -0.098 ± 0.14, S -0.095 ± 0.074, F -0.163 ± 0.098, T 0 ± 0.084, E -0.228 ± 0.13, R -0.045 ± 0.072, V -0.073 ± 0.091, H -0.11 ± 0.17, M -0.037 ± 0.1, Y -0.282 ± 0.12, Q -0.058 ± 0.095, P -0.03 ± 0.077, W -0.154 ± 0.095, C -0.483 ± 0.15, A -0.176 ± 0.094, D -0.365 ± 0.15, G -0.254 ± 0.1
E44: R -0.045 ± 0.083, K -0.018 ± 0.093, W -0.408 ± 0.11, N -0.116 ± 0.1, C -0.137 ± 0.1, T -0.165 ± 0.088, I -0.193 ± 0.12, A -0.001 ± 0.1, M -0.089 ± 0.093, F -0.089 ± 0.17, P -0.097 ± 0.094, Q -0.086 ± 0.1, V -0.123 ± 0.1, D 0.027 ± 0.13, S -0.048 ± 0.077, L -0.11 ± 0.077
L45: V -0.001 ± 0.08, W -0.185 ± 0.1, M -0.219 ± 0.11, S -0.075 ± 0.077, R 0.04 ± 0.07, Y -0.179 ± 0.1, G -0.053 ± 0.076, A -0.111 ± 0.081, P -0.309 ± 0.086, I -0.128 ± 0.096, D -0.04 ± 0.11, H 0.101 ± 0.11, K -0.018 ± 0.11, T -0.03 ± 0.099, N -0.017 ± 0.1

Variants of: B2
Test: as above
Details: Homo sapiens

Abundance fitness, by site and new letter:
Y7: N -0.636 ± 0.16, E -0.608 ± 0.13, W -0.869 ± 0.14, Q -0.975 ± 0.19, K -0.749 ± 0.14, P -0.806 ± 0.15, V -0.37 ± 0.064, R -0.811 ± 0.086, D -0.947 ± 0.19, A -0.882 ± 0.14, S -0.884 ± 0.11, I -0.74 ± 0.14, T -0.731 ± 0.12, C -0.663 ± 0.14, H -0.78 ± 0.26, G -0.833 ± 0.09, L -0.735 ± 0.083
E2: M -0.281 ± 0.093, N 0.052 ± 0.09, A -0.511 ± 0.077, Y -0.049 ± 0.083, R -0.579 ± 0.072, G -0.62 ± 0.068, Q -0.194 ± 0.085, C -0.038 ± 0.08, K -0.723 ± 0.13, H -0.164 ± 0.1, P -0.491 ± 0.11, W -0.121 ± 0.076, L -0.341 ± 0.07, V -0.129 ± 0.051, D -0.516 ± 0.11, S -0.082 ± 0.059, T -0.079 ± 0.066
I6: G -0.625 ± 0.057, M -0.502 ± 0.097, N -0.451 ± 0.13, Q -0.28 ± 0.088, H -0.076 ± 0.11, R -0.728 ± 0.069, L -0.152 ± 0.055, V -0.135 ± 0.05, D -0.585 ± 0.13, E 0.153 ± 0.053, F -0.015 ± 0.08, K -0.892 ± 0.13, C -0.467 ± 0.1, A -0.578 ± 0.078, T -0.132 ± 0.074, S -0.431 ± 0.073, Y 0.248 ± 0.07, P -0.816 ± 0.17
T3: D -0.448 ± 0.11, H -0.831 ± 0.18, P -0.509 ± 0.092, S -0.633 ± 0.085, Q -1.05 ± 0.2, F -0.452 ± 0.14, I -0.962 ± 0.25, K -0.635 ± 0.12, N -0.822 ± 0.18, G -0.853 ± 0.076, E -0.638 ± 0.1, R -0.665 ± 0.075, A -0.684 ± 0.089, L -0.727 ± 0.083, C -0.59 ± 0.12, M -0.683 ± 0.12
H8: E -1.06 ± 0.21, A -0.772 ± 0.11, C -1.19 ± 0.3
I5: G -0.643 ± 0.056, T -0.437 ± 0.1, V -0.265 ± 0.058, D -0.973 ± 0.18, H -0.514 ± 0.17, Y -0.969 ± 0.23, K -1.16 ± 0.21, L -0.698 ± 0.085, M -0.803 ± 0.12, E -0.767 ± 0.11, R -0.784 ± 0.069, N -0.916 ± 0.24, C -0.535 ± 0.11, W -0.625 ± 0.073, F -0.815 ± 0.17, P -0.543 ± 0.11, A -0.837 ± 0.11, S -0.765 ± 0.099
G1: L -0.132 ± 0.11, K 0.191 ± 0.11, R -0.179 ± 0.068, D -0.205 ± 0.1, T -0.198 ± 0.12, N -0.444 ± 0.26, P 0.022 ± 0.24, Y -0.124 ± 0.21, F 0.109 ± 0.23, I -0.324 ± 0.26, M -0.074 ± 0.14, A -0.084 ± 0.074, Q -0.035 ± 0.16, C -0.13 ± 0.13, W -0.222 ± 0.098
